# In patent US20250340613A1 (JOINT STOCK COMPANY BIOCAD, published 2025):
# T1: hisOX40, Tumor necrosis factor receptor superfamily member 4 (Homo sapiens) aa 26-210 (Homo sapiens, UniProt P43489 26-210)
# T1 construct: range 26-210; The tag is put first only because the name begins with His; not shown: His tag as the name implies
# T1 sequence (looked up): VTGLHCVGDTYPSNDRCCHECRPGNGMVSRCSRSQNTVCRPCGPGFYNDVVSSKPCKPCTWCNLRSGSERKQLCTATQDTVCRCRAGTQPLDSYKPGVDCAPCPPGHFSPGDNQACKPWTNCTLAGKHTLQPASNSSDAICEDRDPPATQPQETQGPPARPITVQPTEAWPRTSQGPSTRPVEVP
# T2: hCD38-Avi, ADP-ribosyl cyclase/cyclic ADP-ribose hydrolase 1 (Homo sapiens) aa 43-300 (Homo sapiens, UniProt P28907 43-300)
# T2 construct: range 43-300; not shown: Avi tag as the name implies
# T2 sequence (looked up): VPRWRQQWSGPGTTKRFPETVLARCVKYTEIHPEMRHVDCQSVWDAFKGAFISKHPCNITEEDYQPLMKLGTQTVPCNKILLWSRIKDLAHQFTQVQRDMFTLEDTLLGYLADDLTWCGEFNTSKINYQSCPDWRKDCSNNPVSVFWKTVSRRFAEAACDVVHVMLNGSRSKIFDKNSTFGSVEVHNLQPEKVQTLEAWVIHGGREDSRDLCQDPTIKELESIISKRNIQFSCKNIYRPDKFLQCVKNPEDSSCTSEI
# T3: C-Avi-His-TEVs-HSA_hBCMA, Tumor necrosis factor receptor superfamily member 17 (Homo sapiens) aa 1-54 (Homo sapiens, UniProt Q02223 1-54)
# T3 construct: range 1-54; not shown: Avi, His, TEV site and HSA parts as the name implies
# T3 sequence (looked up): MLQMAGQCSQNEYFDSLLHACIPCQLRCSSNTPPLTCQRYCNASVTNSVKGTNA
# T4: hIL4R-His, Interleukin-4 receptor subunit alpha (Homo sapiens) aa 27-227 (Homo sapiens, UniProt P24394 27-227)
# T4 construct: range 27-227; not shown: His tag as the name implies
# T4 sequence (looked up): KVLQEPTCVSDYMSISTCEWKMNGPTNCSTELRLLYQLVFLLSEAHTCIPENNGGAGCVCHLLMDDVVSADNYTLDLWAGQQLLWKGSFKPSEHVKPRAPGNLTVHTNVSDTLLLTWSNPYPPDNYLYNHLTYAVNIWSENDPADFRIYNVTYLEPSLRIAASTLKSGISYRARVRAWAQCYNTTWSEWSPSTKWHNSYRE
# T5: hAng2_H6F, Angiopoietin-2 (Homo sapiens) aa 19-496 (Homo sapiens, UniProt O15123 19-496)
# T5 construct: also called hAng-H6F; not shown: His and FLAG tags implied by the name 'H6F'
# T5 sequence: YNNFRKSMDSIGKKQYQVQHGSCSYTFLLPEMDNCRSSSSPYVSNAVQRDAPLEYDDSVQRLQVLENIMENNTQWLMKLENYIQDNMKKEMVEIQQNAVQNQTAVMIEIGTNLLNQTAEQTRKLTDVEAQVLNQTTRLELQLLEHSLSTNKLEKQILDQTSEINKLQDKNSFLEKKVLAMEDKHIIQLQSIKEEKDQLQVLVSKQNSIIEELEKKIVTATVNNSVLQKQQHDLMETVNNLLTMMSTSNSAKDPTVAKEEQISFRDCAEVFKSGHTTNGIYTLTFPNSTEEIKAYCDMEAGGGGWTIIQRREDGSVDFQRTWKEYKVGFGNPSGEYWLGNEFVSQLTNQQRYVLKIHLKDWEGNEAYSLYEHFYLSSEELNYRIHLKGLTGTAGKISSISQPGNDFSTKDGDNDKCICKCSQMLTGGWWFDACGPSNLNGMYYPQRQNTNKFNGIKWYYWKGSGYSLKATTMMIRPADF
# B1: 02-007, bivalent bispecific chimeric antibody that specifically binds to PD1 and CSF1R (bispecific antibody, human IgG1, kappa, L234A L235A)
# heavy 1: QVQLVESGGGLVRPGGSLRLSCAASEFTFDDYAMSWVRQAPGKGLEWVSAISWNGGSTNYADSVKGRFTISRDNAKNSLYLQMNSLRAEDTALYYCASTVEVAHRRLYKYLEVWGQGTLVTVSSASTKGPSVFPLAPSSKSTSGGTAALGCLVKDYFPEPVTVSWNSGALTSGVHTFPAVLQSSGLYSLSSVVTVPSSSLGTQTYICNVNHKPSNTKVDKRVEPKSCDKTHTCPPCPAPEAAGGPSVFLFPPKPKDTLYITREPEVTCVVVDVSHEDPEVKFNWYVDGVEVHNAKTKPREEQYNSTYRVVSVLTVLHQDWLNGKEYKCKVSNKALPAPIEKTISKAKGQPREPQVCTLPPSRDELTKNQVSLSCAVKGFYPSDIAVEWESNGQPENNYKTTPPVLDSDGSFFLVSKLTVDKSRWQQGNVFSCSVMHEALHNHYTQKSLSLSPGK
# light 1: QAGLTQPPSVSVAPGQTARITCGGNNIGSKSVHWYQQKPGQAPVLVVYGDSDRPSGIPERFSGSNSGNTATLTISRVEAGDEADYYCQVWDISSDHVVFGGGTQLTVLRTVAAPSVFIFPPSDEQLKSGTASVVCLLNNFYPREAKVQWKVDNALQSGNSQESVTEQDSKDSTYSLSSTLTLSKADYEKHKVYACEVTHQGLSSPVTKSFNRGEC
# heavy 2: not shown
# light 2: QPVLTQPLSVSVALGQTARITCGGNNIGSKNVHWYQQKPGQAPVLVIYRDSNRPSGIPERFSGSNSGNTATLTISRAQAGDEADYYCQVWDSSTAVFGTGTKLTVLQQRQVKPEAWLSSGPSPGPGRLQLVCHVSGFYPKPVWVMWMRGEQEQQGTQLGDILPNANWTWYLRATLDVADGEAAGLSCRVKHSSLEGQDIILYWRGSC
# notes: Produced in CHO cells
# B2: 02-006, bivalent bispecific chimeric antibody that specifically binds to PD1 and CSF1R (bispecific antibody, human IgG1, kappa, L234A L235A)
# heavy 1: QVQLVQSGGGLVQPGGSLRLSCAASGFTFSSYWMYWVRQVPGKGLEWVSAIDTGGGRTYYADSVKGRFAISRVNAKNTMYLQMNSLRAEDTAVYYCARDEGGGTGWGVLKDWPYGLDAWGQGTLVTVSSASTKGPSVFPLAPSSKSTSGGTAALGCLVKDYFPEPVTVSWNSGALTSGVHTFPAVLQSSGLYSLSSVVTVPSSSLGTQTYICNVNHKPSNTKVDKRVEPKSCDKTHTCPPCPAPEAAGGPSVFLFPPKPKDTLYITREPEVTCVVVDVSHEDPEVKFNWYVDGVEVHNAKTKPREEQYNSTYRVVSVLTVLHQDWLNGKEYKCKVSNKALPAPIEKTISKAKGQPREPQVCTLPPSRDELTKNQVSLSCAVKGFYPSDIAVEWESNGQPENNYKTTPPVLDSDGSFFLVSKLTVDKSRWQQGNVFSCSVMHEALHNHYTQKSLSLSPGK
# light 1: QPVLTQPLSVSVALGQTARITCGGNNIGSKNVHWYQQKPGQAPVLVIYRDSNRPSGIPERFSGSNSGNTATLTISRAQAGDEADYYCQVWDSSTAVFGTGTKLTVLQRTVAAPSVFIFPPSDEQLKSGTASVVCLLNNFYPREAKVQWKVDNALQSGNSQESVTEQDSKDSTYSLSSTLTLSKADYEKHKVYACEVTHQGLSSPVTKSFNRGEC
# heavy 2: not shown
# light 2: QAGLTQPPSVSVAPGQTARITCGGNNIGSKSVHWYQQKPGQAPVLVVYGDSDRPSGIPERFSGSNSGNTATLTISRVEAGDEADYYCQVWDISSDHVVFGGGTQLTVLQRQVKPEAWLSSGPSPGPGRLQLVCHVSGFYPKPVWVMWMRGEQEQQGTQLGDILPNANWTWYLRATLDVADGEAAGLSCRVKHSSLEGQDIILYWRGSC
# notes: Produced in CHO cells
# B3: 02-008, bivalent bispecific chimeric antibody that specifically binds to CD20 and CSF1R (bispecific antibody, human IgG1, kappa, L234A L235A)
# heavy 1: EVQLVESGGGLVQPGGSLRLSCAASGYTFTSYNMHWVRQAPGKGLEWVGAIYPGNGDTSYNQKFKGRFTISVDKSKNTLYLQMNSLRAEDTAVYYCARVVYYSNSYWYFDVWGQGTLVTVSSASTKGPSVFPLAPSSKSTSGGTAALGCLVKDYFPEPVTVSWNSGALTSGVHTFPAVLQSSGLYSLSSVVTVPSSSLGTQTYICNVNHKPSNTKVDKRVEPKSCDKTHTCPPCPAPEAAGGPSVFLFPPKPKDTLYITREPEVTCVVVDVSHEDPEVKFNWYVDGVEVHNAKTKPREEQYNSTYRVVSVLTVLHQDWLNGKEYKCKVSNKALPAPIEKTISKAKGQPREPQVCTLPPSRDELTKNQVSLSCAVKGFYPSDIAVEWESNGQPENNYKTTPPVLDSDGSFFLVSKLTVDKSRWQQGNVFSCSVMHEALHNHYTQKSLSLSPGK
# light 1: DIQMTQSPSSLSASVGDRVTITCRASSSVSYMHWYQQKPGKAPKPLIYAPSNLASGVPSRFSGSGSGTDFTLTISSLQPEDFATYYCQQWSFNPPTFGQGTKVEIKRTVAAPSVFIFPPSDEQLKSGTASVVCLLNNFYPREAKVQWKVDNALQSGNSQESVTEQDSKDSTYSLSSTLTLSKADYEKHKVYACEVTHQGLSSPVTKSFNRGEC
# heavy 2: not shown
# light 2: B2 light 2
# notes: Produced in CHO cells
# Target: T1, hisOX40, Tumor necrosis factor receptor …
# Test: BLI Octet RED 384; antibody on ProA sensor, antigen 30 ug/ml (1310 nM); response at end of association
# Protocol: (§1) Experimental study of nonspecific binding of bispecific chimeric antibodies to non-target antigens was performed on Forte Bio Octert RED 384. Protein A (ProA) biosensors (ForteBio) were immersed into a solution containing antibodies at a concentration of 10 μg/ml for 150 seconds to immobilize same. The baseline was recorded in a 1×KB solution for 30 seconds. The antibody-loaded sensors were then immersed into wells containing non-target antigens at a concentration of 30 μg/ml for 150 seconds. Complex dissociation was then recorded for 30 seconds.
# (§2) The reference sensors went through all the steps as the sensors used to record analyte sensograms did, with the exception of the association step—at the association step, the sensors were immersed in a kinetic buffer solution without analyte (the reference sensor signals were measured in parallel with the recording of the main sensograms). The reference signal was subtracted from the signal received on sensors interacting with the analyte during the processing of sensograms.
# (§3) Sensograms were processed using ForteBio Octet Data Analysisn 9.0 software. To report no non-specific interaction, the recorded signal level was checked at the end of the association step (the response parameter).
row,Binder,Signal level (nm)
1,B1,-0.0056
2,B2,-0.0094
3,B3,-0.012

# Target: T2, hCD38-Avi, ADP-ribosyl cyclase/cyclic …
# Test: BLI Octet RED 384; antibody on ProA sensor, antigen 30 ug/ml (854.7 nM); response at end of association
# Protocol: as §1, §2, §3
row,Signal level (nm),Binder
1,0.0088,B1
2,0.0158,B2
3,0.0028,B3

# Target: T6, extracellular domain of the human PD-1 protein (hPD1ex-H6F) (Homo sapiens, UniProt Q15116 21-170)
# T6 construct: Molecular weight 20.6 kDa; made in CHO cells; also called hPDlex-H6F; not shown: C-terminal His and FLAG tags
# Test: BLI Octet RED 384; antibody on ProA sensor, antigen 30 ug/ml (1456 nM); response at end of association
# Protocol: as §1, §2, §3
# T6 sequence (Q15116 21-170 limits assumed, form in doubt): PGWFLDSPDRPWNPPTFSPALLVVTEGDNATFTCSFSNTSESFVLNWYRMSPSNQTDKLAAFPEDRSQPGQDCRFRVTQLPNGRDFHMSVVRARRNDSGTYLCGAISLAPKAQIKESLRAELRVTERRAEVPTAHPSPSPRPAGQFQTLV
row,Signal level (nm),Binder
1,0.172,B1
2,0.144,B2
3,-0.0033,B3

# Target: T7, extracellular domain of the human CSF1R protein (hCSF1R_His) (Homo sapiens, UniProt P07333 20-512)
# T7 construct: range 20-512; Molecular weight 57.4 kDa; made in CHO cells; also called hCSF1_His; not shown: C-terminal His and FLAG tags
# Test: BLI Octet RED 384; antibody on ProA sensor, antigen 30 ug/ml (522.5 nM); response at end of association
# Protocol: as §1, §2, §3
# T7 sequence (P07333 20-512 limits assumed): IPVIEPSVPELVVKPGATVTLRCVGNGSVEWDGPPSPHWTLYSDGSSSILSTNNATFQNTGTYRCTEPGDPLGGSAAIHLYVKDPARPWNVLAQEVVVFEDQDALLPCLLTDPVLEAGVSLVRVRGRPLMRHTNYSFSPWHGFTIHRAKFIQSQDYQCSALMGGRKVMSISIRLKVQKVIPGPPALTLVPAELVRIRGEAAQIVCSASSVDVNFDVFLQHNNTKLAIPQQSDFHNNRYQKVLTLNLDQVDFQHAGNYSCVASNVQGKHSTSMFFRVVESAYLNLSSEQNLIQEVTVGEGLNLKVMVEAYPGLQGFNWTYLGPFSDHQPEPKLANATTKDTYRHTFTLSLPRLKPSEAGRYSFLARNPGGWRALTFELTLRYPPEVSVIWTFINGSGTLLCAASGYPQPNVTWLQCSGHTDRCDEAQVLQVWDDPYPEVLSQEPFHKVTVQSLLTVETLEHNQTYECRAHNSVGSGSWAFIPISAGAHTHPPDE
row,Signal level (nm),Binder
1,0.537,B1
2,0.573,B2
3,0.548,B3

# Target: T3, C-Avi-His-TEVs-HSA_hBCMA, Tumor …
# Test: BLI Octet RED 384; antibody on ProA sensor, antigen 30 ug/ml (391.2 nM); response at end of association
# Protocol: as §1, §2, §3
row,Binder,Signal level (nm)
1,B1,0.0061
2,B2,0.0009
3,B3,-0.0023

# Target: T4, hIL4R-His, Interleukin-4 receptor …
# Test: BLI Octet RED 384; antibody on ProA sensor, antigen 30 ug/ml (1154 nM); response at end of association
# Protocol: as §1, §2, §3
row,Signal level (nm),Binder
1,0.0051,B1
2,-0.0075,B2
3,-0.002,B3

# Target: T8, Her3-H6F, Receptor tyrosine-protein kinase erbB-3 (Homo sapiens) aa 21-643 (Homo sapiens, UniProt P21860 21-643)
# T8 construct: not shown: His and FLAG tags implied by the name 'H6F'
# Test: BLI Octet RED 384; antibody on ProA sensor, antigen 30 ug/ml (420.8 nM); response at end of association
# Protocol: as §1, §2, §3
# T8 sequence (P21860 21-643 limits assumed): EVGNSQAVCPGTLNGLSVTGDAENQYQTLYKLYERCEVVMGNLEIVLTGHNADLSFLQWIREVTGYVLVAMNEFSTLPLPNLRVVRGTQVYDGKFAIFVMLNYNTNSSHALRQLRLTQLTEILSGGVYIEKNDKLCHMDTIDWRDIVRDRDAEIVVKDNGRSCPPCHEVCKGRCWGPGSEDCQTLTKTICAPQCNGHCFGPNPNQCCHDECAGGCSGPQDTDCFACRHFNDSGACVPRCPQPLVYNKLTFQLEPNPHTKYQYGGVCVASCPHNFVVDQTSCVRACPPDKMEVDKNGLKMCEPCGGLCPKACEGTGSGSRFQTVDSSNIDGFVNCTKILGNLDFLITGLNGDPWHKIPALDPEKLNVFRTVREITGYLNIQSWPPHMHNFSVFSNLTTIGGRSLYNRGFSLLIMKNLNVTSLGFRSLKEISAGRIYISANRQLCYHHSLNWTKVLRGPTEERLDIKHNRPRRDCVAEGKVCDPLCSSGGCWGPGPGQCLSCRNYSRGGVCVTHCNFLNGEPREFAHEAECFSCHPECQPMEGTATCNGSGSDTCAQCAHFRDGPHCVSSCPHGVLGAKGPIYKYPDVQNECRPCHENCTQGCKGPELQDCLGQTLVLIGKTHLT
row,Signal level (nm),Binder
1,-0.0063,B1
2,-0.0115,B2
3,-0.0108,B3

# Target: T5, hAng2_H6F, Angiopoietin-2 (Homo …)
# Test: BLI Octet RED 384; antibody on ProA sensor, antigen 30 ug/ml (510.2 nM); response at end of association
# Protocol: as §1, §2, §3
row,Signal level (nm),Binder
1,-0.0079,B1
2,-0.0239,B2
3,-0.0124,B3
